Measurements taken from the DeepSol protein solubility set.

assay: soluble on expression in E. coli; label from the status in PepcDB or PDB records

Sequence	soluble on expression in E. coli
MGSDKIHHHHHHFRSFLMRDREKARKYVLKEIEKFGKRAFTWLFSDVVVEGSENIPKDRNFIVVANHQSLMDIPLILGFVATGAFIAKEELRKIPGVNWYIRYLNGVFLDRKNPRRAVRALREAIEKLKNGVTFIVFPEGTRSPDGKVLSFKKDSLMIAVKTGVPVLPVSIWGTYHLIPKGRWTFTPGKVFLKIHEPVDPKGFSSEEELRKYVEEVVKRGVEELKARWSK	not soluble
MKVAVLPGDGIGPEVTEAALKVLRALDEAEGLGLAYEVFPFGGAAIDAFGEPFPEPTRKGVEEAEAVLLGSVGGPKWDGLPRKIRPETGLLSLRKSQDLFANLRPAKVFPGLERLSPLKEEIARGVDVLIVRELTGGIYFGEPRGMSEAEAWNTERYSKPEVERVARVAFEAARKRRKHVVSVDKANVLEVGEFWRKTVEEVGRGYPDVALEHQYVDAMAMHLVRSPARFDVVVTGNIFGDILSDLASVLPGSLGLLPSASLGRGTPVFEPVHGSAPDIAGKGIANPTAAILSAAMMLEHAFGLVELARKVEDAVAKALLETPPPDLGGSAGTEAFTATVLRHLA	soluble
MGSDKIHHHHHHMNRKVAIVTGTNSNLGLNIVFRLIETEDTNVRLTIVVTSRTLPRVQEVINQIKDFYNKSGRVEDLEIDFDYLLVDFTNMVSVLNAYYDINKKYRAINYLFVNAAQGIFDGIDWIGAVKEVFTNPLEAVTNPTYKIQLVGVKSKDDMGLIFQANVFGPYYFISKILPQLTRGKAYIVWISSIMSDPKYLSLNDIELLKTNASYEGSKRLVDLLHLATYKDLKKLGINQYVVQPGIFTSHSFSEYLNFFTYFGMLCLFYLARLLGSPWHNIDGYKAANAPVYVTRLANPNFEKQDVKYGSATSRDGMPYIKTQEIDPTGMSDVFAYIQKKKLEWDEKLKDQIVETRTPI	not soluble
MEMISNNLNWFVGVVEDRMDPLKLGRVRVRVVGLHPPQRAQGDVMGIPTEKLPWMSVIQPITSAAMSGIGGSVTGPVEGTRVYGHFLDKWKTNGIVLGTYGGIVREKPNRLEGFSDPTGQYPRRLGNDTNVLNQGGEVGYDSSSNVIQDSNLDTAINPDDRPLSEIPTDDNPNMSMAEMLRRDEGLRLKVYWDTEGYPTIGIGHLIMKQPVRDMAQINKVLSKQVGREITGNPGSITMEEATTLFERDLADMQRDIKSHSKVGPVWQAVNRSRQMALENMAFQMGVGGVAKFNTMLTAMLAGDWEKAYKAGRDSLWYQQTKGRASRVTMIILTGNLESYGVEVKTPARSLSAMAATVAKSSDPADPPIPNDSRILFKEPVSSYKGEYPYVHTMETESGHIQEFDDTPGQERYRLVHPTGTYEEVSPSGRRTRKTVDNLYDITNADGNFLVAGDKKTNVGGSEIYYNMDNRLHQIDGSNTIFVRGDETKTVEGNGTILVKGNVTIIVEGNADITVKGDATTLVEGNQTNTVNGNLSWKVAGTVDWDVGGDWTEKMASMSSISSGQYTIDGSRIDIGSVDHHHHHH	soluble
MGSDKIHHHHHHVTAPAFLPVILAGGSGERFWPLSRKHRPKQFLTLDETGRSLLQATSDRLGRLSGSPEQVMVVTGTEYRTQVLEQLPDMPIEHLIVEPVARDTAPAVLYAALRVAQENPQAVMGVFPADHRITDAQAFGRVVRRAIEVAEITGGLVTLGVTPTFPATGYGYIQRGEQLLGGELPAFRVSRFTEKPDAETAQLFLADGRYTWNSGMFIWRVQAILAAFEQYQPDMYAQLSAAVRGSPRQVRAVFPELQKISIDYAILEKSDQVVVIPAEFGWDDLGDWNALERLLKGEGQNVAVGRHVGLDTDGAILYTTGGDGLIATIGLEDVVVVRTDEVTLVVRKDRTQDIKKVVQQLKSHPELERFA	not soluble
GPGSMGVDLTGISKKSRVIRHHTYSTNPYIKLLIKLYKFLAKRTSSGFNKVVYQRLIKSRSNRAPISLSRIAVVMKRKAVFTAKSKAAPIAVVVGDVLDDVRMARIPAMRVCALRFSKSARQSIVAAGGECLTFDQLAMIAPTGKNTYLLRGRKSGRESVRHFGASGVPGSHSKPYATNRGKETKRGRRTGRSYKRKAFRHV	soluble
MGSDKIHHHHHHMPHDDHITALCFNNAESYEKPILVTASRDGHFKVWILTDDSDIYKKAIAWTCDFVGSYHKYQATNCCFSEDGSLLAVSFEEIVTIWDSQTWELKCTFCQRAGKIRHLCFGRLTCSKYLLGTTDNGILCCWNLLSCSIQWSAKLNVRVMEPDPYSDHVAAVAQSSAGSDLFVFKPSEPRPLYIQKNVSREEVQWGVFVPRDVPESFTSETHQWLNRSQFYFLTKSQSLLTFSTKSPEEKLTPTSKQLLAEESLPTTPFSFILGKHRQQQGAKLTETSENELVQLPLTENIPAITELLHTPAHVLPSASFLCSLFVNSLLLSKETKSAEEVPDDVDMEGNKESDDSDEEYDLTEKDKETNNTDLGEDAIHQLSKSEEKELRKFRKVDYSWLTAL	not soluble
MDEFYISIETVGNNIVERYIDENGKERTREVEYLPTMFRHCKEESKYKDIYGKNCAPQKFPSMKDARDWMKRMEDIGLEALGMNDFKLAYISDTYGSEIVYDRKFVRVANCDIEVTGDKFPDPMKAEYEIDAITHYDSIDDRFYVFDLLNSMYGSVSKWDAKLAAKLDCEGGDEVPQEILDRVIYMPFDNERDMLMEYINLWEQKRPAIFTGWNIEGFDVPYIMNRVKMILGERSMKRFSPIGRVKSKLLQNMYGSKEIYSIDGVSILDYLDLYKKFAFTNLPSFSLESVAQHETKKGKLPYDGPINKLRETNHQRYISYNIIDVESVQAIDKIRGFIDLVLSMSYYAKMPFSGVMSPIKTWDAIIFNSLKGEHKVIPQQGSHVKQSF	soluble
RKEDHARLRALNGLLYKALTDLLCTPEVSQELYDLNVELSKVSLTPDFSACRAYWKTTLSAEQNAHMEAVLQRSAAHMRHLLMSQQTLRNVPPIVFVQDKGNAALAELDQLLAVAD	soluble
MSLGETAWCRHPLAYLVEAADDICYALLDLEDGLEMGILRFDEVAEILIQIAGGAPEGYDGMRARGVSQRRRIATLRGAAMERAVNDVAAVFVAHESALLGGTLSEDLLELCHPDLGWGVGTAKRIARERIFQNERKAKLEIGAYTTLGILLEAFIGAAHELHYSGQSSFKHQRVLALIGENTPKSSWSLYASYRRMLDFIGGMTDHYAVDLAQEMGGRLEGHHHHHH	not soluble
MNLSNLWQSCLLQLQDQVSASDLSTWLRPLQADVVADNHIVLYASNMFVKGWVETHYLAQIQQICQTLAQNPELRISLKEGVKPAPKIVESTPNTSLRSESAVDFQAESSASVKFESHLNTKHLFDNFVEGKSNQLARAVGQKLAQAPGEPSANPFFLYGGTGLGKTHLLHAIGNGILADKPNARVLYIHANNFMQHMVKAVRDNKMDQFKKFYRSLDALLVDDIQFFAEKEKTQEEFFHIFNSLFETGRQIILTSDRYPKEIEKIEERLKSRFGWGLTTAIEPPDLETRVAILLKKAEEHNMNLPEEVAFFIAQRLRTNVRELEGALNRVKAMQDFKGGDIDIDFVRDTLKDILALQERLVTIENIQKVVAEYYRIKVSDLKSKSRARSVTRPRQIAMALAKELTNRSLPEIGRAFDRDHTTVLNACREVPKFREQDNSIQEDWANLIRTLSALEHHHHHH	soluble
GPAIAENLYFQSPQLNGGGGDDLGANDELISFKDEGEQEEKSSENSSAERDLADVKSSLVNESETNQNSSSDSEAERRPPPRSESFRDKSRESLEEAAKRQDGGLFKGPPYPGYPFIMIPDLTSPYLPNGSLSPTARTYLQMKWPLLDVQAGSLQSRQALKDARSPSPAHIVSNKVPVVQHPHHVHPLTPLITYSNEHFTPGNPPPHLPADVDPKTGIPRPPHPPDISPYYPLSPGTVGQIPHPLGWQGQPVYPITTGGFRHPYPTALTVNASMSRFPPHMVPPHHTLHTTGIPHPAIVTPTVKQESSQSDVGSLHSSKHQDSKKEEEKKKPHIKKPLNAFMLYMKEMRAKVVAECTLKESAAINQILGRRWHALSREEQAKYYELARKERQLHMQLYPGWSARDNYGKKKKRKRDKQPGETNEHSECFLNPCLSLPPITGEKKSAFATYKVKAAASAHPLQMEAY	soluble
MEMFKMSREMLQLAEALASEKNVDAEVVFQALEFALSTAAKKKADREHMDVRVQINRDTGEYQTFRRWLIVADEDYTYPDVEKTIEEIQEEIPDTTIQIGEYYEEQLPNEGFGRQAAQTAKQIILQRIRDAEREQNLNEFLAVKEDIVSGTVKRVERHGIIVEVVAGKLDALIPRDQMIPRENFRSGDRIRALFLRVEEIGNTGRKQIILSRTSGDFLVKLYANEVPEIADGMLEIRAVARDPGQRAKVAVKANDQRIDPQGTCIGVRGSRVNAVSNELSGERIDVVLWSPEPAQFVMSALSPAEVSRIVIDEDKHAVDVIVAEDRLALAIGRGGQNVRLASDLTGWQLNIMTSAEADERNAAEDAAIRRLFMNHLNVDEETADVLVQEGFATLEEVAYVPAAELLAIEGFDEEIVDMLRNRARDAILTMAIAAEEKLGEVSDDMRNLEGVDADMLLSLAEAGITTRDDLAELAVDELIEITGVNEETAKAVILTAREHWFTEDKLEHHHHHH	soluble
PRHRLLVVGAGQLSRYLCEMAIALDFDVTVSDPRQEYRAGWQVEGVALTTAMPDDMVIAARPDARTAVIALTHDPKLDDLALIDALQTPAFYVGALGSRANHARRVARLREHFGLTPAQLARLRGPAGIY	not soluble
MGDTFIRHIALLGFEKRFIPSQHYVYMFLVKWQDLSEKVVYRKFTEIYEFHKMLKEMFPIEAGEIHTENRVIPHLPAPRWFDGQRAAESRQGTLTEYFNGLMGLPVKISRCPHLLDFFKVRPDDLKLPTDSQAKKPETYLVPKDGKNNVADITGPIILQTYRAIADYEKSSGTEMTVATGDVVDVVEKSESGWWFCQMKTKRGWVPASYLEPLDSPDEAEDPDPNYAGEPYVTIKAYAAVEEDEMSLSEGEAIEVIHKLLDGWWVVRKGDITGYFPSMYLQKAGEEITQAQRQIRGRGAPPRRSTIRNAQSIHQRSRKRLSQDTYRRNSVRFLQQRRRPGRPGPLSTDGTKDNPSTPRVKPQPAVPPRPSSDLILHRCTESTKRKLTSAV	soluble
MTSGGNSIEPSVVAEAEKMLFCYQYDQTITISITSSADPCPLCNGGFLDEYVDPNPNPIPNLILPMSDPISSRFSFIPVMDFTNPSFLGESMEPQSTQQQLNAFDPNQLSDQANPLAGNHGDYFFGRGLEDLI	not soluble
MSMSHINYNHLYYFWHVYKEGSVVGAAEALYLTPQTITGQIRALEERLQGKLFKRKGRGLEPSELGELVYRYADKMFTLSQEMLDIVNYRKESNLLFDVGVADALSKRLVSSVLNAAVVEGEPIHLRCFESTHEMLLEQLSQHKLDMIISDCPIDSTQQEGLFSVRIGECGVSFWCTNPPPEKPFPACLEERRLLIPGRRSMLGRKLLNWFNSQGLNVEILGEFDDAALMKAFGAMHNAIFVAPTLYAYDFYADKTVVEIGRVENVMEEYHAIFAERMIQHPAVQRICNTDYSALFSPAVR	soluble
MISILYDEIVSCSRCERLIEYRKNFKIPPRFKDWNYWNKPVPGFGDEKAKILIVGLAPALHGGNRTGRVFTGDESGKWVIKGLYALGLSNKEEGKTREDGLEVKEVYLTNTVKCAPPKNKPTREEISNCSRFLIEEIKSLRIKVILALGRIAFDTILSLYGIKSKFYHGVVIKLPDDKILIGSYHPSAQNTKTGRLKWEDWIKILKLAYEIANNPQY	soluble
MSLDTVVKVGFAAPLTGPNANYGKDLENGVKMALDDAKAQGVKINGQPVTFQLVAEDDQADPRIGVQVAQKLIDEGVSVVVGHFNSGTTIPASNLYEKAGLPDIDPAATNPTISSRGFKNMFMVISSDAQNAGTAGAYAVETTKAKRIAVIDDRTAFGQGEADEFVKAVKAHGGDIIDREYTTNQATDFKTQLTNLKAKNPDLIFVGALNPQAAGIMKQMNQLGIKAQYVGGGGVKDIDFIKLAGDVSEGAMAWEYGRPLDSTPVGAKFAERFKQKFGEDVLSYAPFGYDAAWAAIKAMQAANSTKPDDYRSKLQSISFEGITGHIEFNANGSLKNGSSTVYQVKNGQWVTVKTVSGEGHHHHHH	soluble
